We go through one molecule from patent US20220227861A1 (UNIVERSITY COLLEGE CARDIFF CONSULTANTS, published 2022).

This experiment has as its target T1, ZIP10 (SLC39A10) zinc transporter, endogenous in cells (human, UniProt Q9ULF5 26-831).
T1 construct: Endogenous ZIP10 of MCF-7 cells or of ZIP6-transfected cells
T1 sequence: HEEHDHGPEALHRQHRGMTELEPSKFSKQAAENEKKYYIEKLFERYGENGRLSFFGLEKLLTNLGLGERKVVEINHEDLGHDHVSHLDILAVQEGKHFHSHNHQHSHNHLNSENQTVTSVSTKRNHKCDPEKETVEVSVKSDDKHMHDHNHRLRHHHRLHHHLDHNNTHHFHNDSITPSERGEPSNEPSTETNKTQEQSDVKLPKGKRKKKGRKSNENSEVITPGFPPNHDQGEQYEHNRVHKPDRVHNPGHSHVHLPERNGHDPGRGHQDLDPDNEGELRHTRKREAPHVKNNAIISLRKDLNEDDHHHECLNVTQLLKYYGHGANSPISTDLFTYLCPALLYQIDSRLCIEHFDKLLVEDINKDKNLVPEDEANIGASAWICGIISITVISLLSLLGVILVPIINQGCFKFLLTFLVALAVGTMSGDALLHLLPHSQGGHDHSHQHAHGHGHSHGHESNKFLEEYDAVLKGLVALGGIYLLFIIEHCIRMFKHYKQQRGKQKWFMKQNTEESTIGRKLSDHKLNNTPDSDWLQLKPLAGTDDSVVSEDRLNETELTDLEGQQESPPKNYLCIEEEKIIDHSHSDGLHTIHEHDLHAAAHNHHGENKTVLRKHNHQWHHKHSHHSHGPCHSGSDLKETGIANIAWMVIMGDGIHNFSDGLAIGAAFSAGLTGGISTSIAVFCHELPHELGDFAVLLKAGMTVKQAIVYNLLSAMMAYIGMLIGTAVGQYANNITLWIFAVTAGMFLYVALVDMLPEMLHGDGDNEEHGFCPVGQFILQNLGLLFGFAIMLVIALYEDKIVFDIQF
In words: immunoprecipitation with V5 antibody, Western blot for ZIP10. As for the experimental part: FIG. 2. […] [A] FACS cell cycle analysis confirms the increase in the G2/M population in nocodazole-treated cells, compared to control. […] Statistical significance is determined by Student's t test. *** p<0.001. [B] Control PLA using either our ZIP6-Y or our ZIP10 antibodies alone in nocodazole-treated MCF-7 cells produces only a few dots in mitotic cells (arrow), compared to FIG. 3D. Scale bar, 20 μm. [C] […] [D] FACS cell cycle analysis confirms the increase in the G2/M population in the non-adherent cells collected using the mitotic shake-off technique, compared to the adherent cells from the same dishes. […] Statistical significance is determined by Student's t test. *** p<0.001. [E] PLA using ZIP6-SC and pY⁷⁰⁵STAT3 antibodies together as well as individual control ZIP6-SC and […] antibodies in nocodazole-treated MCF-7 cells produces only few dots, compared to FIG. 5F.
Cells were harvested, washed with PBS, lysed for 1 hour at 4° C. with lysis buffer pH7.6 (50 mM Tris, 150 mM NaCl, 5 mM EGTA and 1% Triton X-100) with protease inhibitor cocktail for mammalian cells (Signa-Aldrich) and phosphatase inhibitors (2 mM sodium orthovanadate and 50 mM sodium fluoride). Protein was measured using Bio-Rad/Bradford dye-binding protein microassay. Western Blot results of 40 μg/lane from three separate experiments were normalised to GAPDH values. […]

B1: recombinant ZIP6 wild-type with C-terminal V5 tag (other)
chain: FPQTTEKISPNWESGINVDLAISTRQYHLQQLFYRYGENNSLSVEGFRKLLQNIGIDKIKRIHIHHDHDHHSDHEHHSDHERHSDHEHHSEHEHHSDHDHHSHHNHAASGKNKRKALCPDHDSDSSGKDPRNSQGKGAHRPEHASGRRNVKDSVSASEVTSTVYNTVSEGTHFLETIETPRPGKLFPKDVSSSTPPSVTSKSRVSRLAGRKTNESVSEPRKGFMYSRNTNENPQECFNASKLLTSHGMGIQVPLNATEFNYLCPAIINQIDARSCLIHTSEKKAEIPPKTYSLQIAWVGGFIAISIISFLSLLGVILVPLMNRVFFKFLLSFLVALAVGTLSGDAFLHLLPHSHASHHHSHSHEEPAMEMKRGPLFSHLSSQNIEESAYFDSTWKGLTALGGLYFMFLVEHVLTLIKQFKDKKKKNQKKPENDDDVEIKKQLSKYESQLSTNEEKVDTDDRTEGYLRADSQEPSHFDSQQPAVLEEEEVMIAHAHPQEVYNEYVPRGCKNKCHSHFHDTLGQSDDLIHHHHDYHHILHHHHHQNHHPHSHSQRYSREELKDAGVATLAWMVIMGDGLHNFSDGLAIGAAFTEGLSSGLSTSVAVFCHELPHELGDFAVLLKAGMTVKQAVLYNALSAMLAYLGMATGIFIGHYAENVSMWIFALTAGLFMYVALVDMVPEMLHNDASDHGCSRWGYFFLQNAGMLLGFGIMLLISIFEHKIVFRINF
notes: Expressed by transfection and immunoprecipitated from cell lysate with V5 antibody; also called ZIP6 wild-type (WT); ZIP6/LIV-1/SLC39A6 in pcDNA3.1/V5-His-TOPO; not shown: C-terminal V5 tag from vector pcDNA3.1/V5-His-TOPO
Consider B1, for which the binding result is “binds”.
